No end group written: not given here.
Experiments:
[1] = molecular target: T1, Neogenin (full-length, 180 kDa) (chick, UniProt Q90610 1-1443); test: cell-based or functional assay
T1 construct: Endogenous Neogenin of chick brain membranes, retinal axons and tecta, or Neogenin transfected into HEK293 cells; in Western blots it stood denatured
T1 sequence: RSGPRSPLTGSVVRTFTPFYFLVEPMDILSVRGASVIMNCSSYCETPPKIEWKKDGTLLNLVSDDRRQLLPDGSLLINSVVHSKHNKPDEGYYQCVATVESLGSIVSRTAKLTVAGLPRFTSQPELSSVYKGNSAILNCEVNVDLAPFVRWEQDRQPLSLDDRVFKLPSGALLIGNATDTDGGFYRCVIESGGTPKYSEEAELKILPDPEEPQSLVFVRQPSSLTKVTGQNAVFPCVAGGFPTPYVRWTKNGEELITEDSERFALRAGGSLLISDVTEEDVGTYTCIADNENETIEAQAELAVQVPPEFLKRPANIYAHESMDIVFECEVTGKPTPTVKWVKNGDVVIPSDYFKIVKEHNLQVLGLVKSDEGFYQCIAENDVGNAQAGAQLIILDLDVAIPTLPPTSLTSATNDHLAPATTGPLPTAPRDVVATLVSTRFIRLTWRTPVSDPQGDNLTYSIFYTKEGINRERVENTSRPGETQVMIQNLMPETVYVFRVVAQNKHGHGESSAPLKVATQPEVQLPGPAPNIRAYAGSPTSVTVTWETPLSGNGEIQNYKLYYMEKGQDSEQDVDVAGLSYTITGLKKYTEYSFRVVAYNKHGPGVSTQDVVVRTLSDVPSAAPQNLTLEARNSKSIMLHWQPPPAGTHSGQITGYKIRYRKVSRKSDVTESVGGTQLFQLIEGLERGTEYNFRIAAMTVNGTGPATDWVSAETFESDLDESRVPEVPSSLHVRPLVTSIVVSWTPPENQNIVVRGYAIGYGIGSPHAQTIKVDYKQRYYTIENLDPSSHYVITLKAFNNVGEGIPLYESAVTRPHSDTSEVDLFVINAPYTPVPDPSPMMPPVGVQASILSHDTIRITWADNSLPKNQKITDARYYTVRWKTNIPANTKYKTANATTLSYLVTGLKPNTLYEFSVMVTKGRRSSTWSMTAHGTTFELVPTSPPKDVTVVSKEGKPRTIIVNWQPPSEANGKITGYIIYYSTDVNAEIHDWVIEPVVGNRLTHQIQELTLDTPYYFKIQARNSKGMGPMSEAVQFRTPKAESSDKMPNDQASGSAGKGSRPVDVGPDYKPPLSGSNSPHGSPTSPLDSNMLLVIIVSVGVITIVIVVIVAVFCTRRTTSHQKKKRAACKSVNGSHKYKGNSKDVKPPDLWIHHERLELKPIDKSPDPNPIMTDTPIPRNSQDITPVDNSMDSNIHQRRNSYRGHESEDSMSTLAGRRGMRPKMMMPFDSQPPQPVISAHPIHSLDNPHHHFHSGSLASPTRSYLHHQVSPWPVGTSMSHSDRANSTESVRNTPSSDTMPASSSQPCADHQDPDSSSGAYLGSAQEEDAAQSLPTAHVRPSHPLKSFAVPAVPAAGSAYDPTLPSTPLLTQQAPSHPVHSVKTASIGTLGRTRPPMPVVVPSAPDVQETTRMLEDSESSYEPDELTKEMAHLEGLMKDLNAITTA

[2] = molecular target: T2, His-tagged 4Ig-domain of Neogenin (Gallus gallus, UniProt Q90610 1-383); test: plate binding assay, AP-tagged fragments on coated His-tagged Neogenin proteins (FIG. 17C)
T2 construct: Secreted from transfected cells, purified on Ni-NTA; also called His-4Ig; Neogenin-4Ig; not shown: 6-His tag at the N-terminus; myc and 6-His tags of the pSectag 2B vector at the C-terminus
T2 sequence: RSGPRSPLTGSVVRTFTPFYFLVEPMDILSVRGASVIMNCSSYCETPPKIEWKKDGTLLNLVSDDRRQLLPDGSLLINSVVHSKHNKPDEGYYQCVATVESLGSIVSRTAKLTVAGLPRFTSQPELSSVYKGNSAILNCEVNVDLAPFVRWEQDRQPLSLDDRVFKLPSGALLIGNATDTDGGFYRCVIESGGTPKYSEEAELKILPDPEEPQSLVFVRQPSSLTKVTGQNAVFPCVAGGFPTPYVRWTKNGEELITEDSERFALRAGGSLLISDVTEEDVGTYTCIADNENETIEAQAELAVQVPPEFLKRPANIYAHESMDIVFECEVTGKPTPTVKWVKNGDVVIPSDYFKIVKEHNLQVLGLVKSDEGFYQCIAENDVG
Experimental: (§1) Using a 96-well microtiter plate (Corning Incorporated), wells were coated with 100 μl (10 μg/mL) of Poly-L-Lysine at 4° C. overnight. Wells were then washed three times with 100 μl of PBST (+0.02% Tween). 50 μl (2.5 μg/mL) of His-tagged: Full-length Neogenin; 4 Ig Neogenin; and FNIII Neogenin were coated onto each well for 1 hour at 37° C. Following three washes of 100 μl PBST, each well was then blocked with 300 μl of 3% BSA in PBST for 1 hour at 37° C. 50 μl (1.0 μg/mL) AP-tagged: N-RGMa (28-73); N-RGMa (28-54); N-RGMa (40-62); N-RGMa (54-73); N-RGMa (54-62) in 1% BSA+PBST was then added to each well and incubated at 37° C. for 1 hour. Each well was washed thoroughly three times with 100 μl PBST followed by subsequent equilibration of each well with Alkaline Phosphatase (AP) developing buffer (100 mM NaHCO₃, 1 mM MgCl₂). The reaction was developed using AP developing buffer supplemented with, p-nitrophenyl phosphate (pNPP)(Sigma-Aldrich) and allowed to develop until color development. The reaction was stopped with the addition of 50 μl (0.1M) NaOH. The absorbance of each reaction was measured using a microplate autoreader (BIO-TEK Instruments Inc.) at […] wavelength. […]

[3] = molecular target: T3, 6FNIII-domain of Neogenin fused to alkaline phosphatase (Gallus gallus, UniProt Q90610 429-1036); test: binding assay, 4Ig-AP and 6FNIII-AP on wells coated with RGMa proteins (FIG. 9B)
T3 construct: also called 6FNIII-AP; fibronectin domain; not shown: alkaline phosphatase (AP)
T3 sequence: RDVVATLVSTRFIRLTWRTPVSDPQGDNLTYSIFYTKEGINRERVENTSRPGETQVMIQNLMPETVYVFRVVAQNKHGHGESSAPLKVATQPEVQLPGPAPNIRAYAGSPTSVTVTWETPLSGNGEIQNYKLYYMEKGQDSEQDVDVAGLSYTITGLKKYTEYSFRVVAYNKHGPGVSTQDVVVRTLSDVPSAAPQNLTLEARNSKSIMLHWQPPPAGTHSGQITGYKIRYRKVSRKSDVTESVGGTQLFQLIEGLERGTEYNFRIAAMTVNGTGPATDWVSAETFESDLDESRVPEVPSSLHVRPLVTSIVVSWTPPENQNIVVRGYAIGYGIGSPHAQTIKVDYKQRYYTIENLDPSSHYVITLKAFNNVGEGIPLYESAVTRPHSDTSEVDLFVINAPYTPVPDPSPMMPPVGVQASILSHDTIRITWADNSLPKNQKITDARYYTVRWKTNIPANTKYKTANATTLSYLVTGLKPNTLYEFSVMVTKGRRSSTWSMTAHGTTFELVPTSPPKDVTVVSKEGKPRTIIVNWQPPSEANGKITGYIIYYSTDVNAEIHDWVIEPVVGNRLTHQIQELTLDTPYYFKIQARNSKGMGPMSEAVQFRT

[4] = molecular target: T4, 4Ig-domain of Neogenin fused to alkaline phosphatase (Gallus gallus, UniProt Q90610 1-383); test: ELISA with AP fusions of Neogenin domains
T4 construct: also called 4Ig-AP; not shown: alkaline phosphatase (AP)
T4 sequence: T2 sequence

[5] = molecular target: T1, Neogenin (full-length, 180 kDa); test: told in a figure legend; assay not named there (peptide also used on beads in the pull-down of FIG. 2B)
[6] = molecular target: T2, His-tagged 4Ig-domain of Neogenin; test: plate binding assay, AP-tagged fragment on coated His-tagged 4Ig-domain (FIG. 17C)
Experimental: as §1

[7] = molecular target: T3, 6FNIII-domain of Neogenin fused to …; test: ELISA with AP fusions of Neogenin domains
[8] = molecular target: T5, His-tagged 6FNIII-domain of Neogenin (Gallus gallus, UniProt Q90610 429-1036); test: complementary plate assay, RGMa peptides fused with AP on coated Neogenin domains (FIG. 9)
T5 construct: also called His-6FNIII; His-FNIII; not shown: His tag
T5 sequence: T3 sequence
Experimental: (A) Different RGMa-AP proteins were incubated on wells coated with the 4Ig 6FNIII or BSA. […] Data were average±SEM (n=3 independent experiments), *p<0.005. (B) Quantification of a binding assay where 4Ig-AP and 6FNIII-AP proteins were assayed on wells coated with proteins from different RGMa regions. […] C-RGMa proteins and full length RGMa only bound 6FNIII. Data were average±SEM (n=3 independent experiments), *p<0.005. […] Quantification of a binding assay where N-RGMa-AP was assayed on wells coated with proteins DCC-4Ig and Neogenin-4Ig. In this experiment Neogenin-4Ig but not DCC-4Ig interacted with N-Raft-AP. Data were average±SEM (n=4 independent experiments), *p<0.005. (D) Cis-interaction between the 4Ig domain of Neogenin and N-Raft is required for localization of Neogenin in lipid rafts. HEK-293 cells were transfected with Neogenin and RGMa constructs. BMP2 (100 nM) was added to the medium 1 hour before cells were collected. Western blotting was performed following lipid raft fractionation. Flotillin was used as a marker for lipid raft fractions, whereas the transferrin receptor (TfR) was used as a marker for heavy membrane-fractions. Every experiment was repeated twice. […] In the first set of experiments, cells were only transfected with Neogenin. […]

Question: How did the intensity correlation quotient (co-localization in growth cones, immunofluorescence) [1] turn out when “RGMa on the cell membrane (from UniProt Q8JG54 150-404) (ligand)” was run?
Answer: 0.32

B1: N-RGMa (54-73aa), AP-tagged (peptide)
chain: TPEFCTALRAYAHCTRRTAR
modifications: cysteine pairing not given here; also: alkaline phosphatase tag, sequence and position not given here
notes: also called N-RGMa (55-73aa); not shown: alkaline phosphatase tag of the Psectag2B-AP plasmid
Question: Does B1 bind [2]?
Answer: binds

B2: N-RGMa (40-62aa), AP-tagged (peptide)
chain: WAATSGSHHLGAEETPEFCTALR
modifications: also: alkaline phosphatase tag, sequence and position not given here
notes: not shown: alkaline phosphatase tag of the Psectag2B-AP plasmid
Question: Does B2 bind [2]?
Answer: binds

B3: N-inh peptide (amino acids 77-113 of RGMa), His-tagged (peptide)
peptide: GDLAYHSAVHGIDDLMVQHNCSKDGPTSQPRLRTLPP
notes: not shown: 6-His tag at the N-terminus; myc tag and 6-His tag at the C-terminus
Question: Does B3 bind [3]?
Answer: binds

Question: Does B3 bind [4]?
Answer: no binding

Question: Does GAEETPEFCTALRAYAHCTRRTARTCRGDLAYHSAVHGIDDLMVQHNCSK (not shown: 6-His tag at the N-terminus) [N-RGMa^50-99 control peptide (amino acid residues 50-99 of RGMa)] bind [5]?
Answer: no binding

B4: N-RGMa (54-62aa), AP-tagged (peptide)
chain: TPEFCTALR
modifications: also: alkaline phosphatase tag, sequence and position not given here
notes: as for B2
Question: Does B4 bind [6]?
Answer: no binding (tested: 1.0 µg/mL)

B5: N-Raft peptide (amino acids 28-73 of RGMa), His-tagged (peptide)
peptide: SPCKILKCNSEFWAATSGSHHLGAEETPEFCTALRAYAHCTRRTAR
notes: also called N-RGMa^28-73; N-RGMa28-73; not shown: 6-His tag at the N-terminus
Question: Does B5 bind [7]?
Answer: no binding

B6: N-Raft fused with alkaline phosphatase (peptide)
chain: B5 peptide
modifications: cysteine pairing not given here; also: alkaline phosphatase tag, sequence and position not given here
notes: also called N-Raft-AP; N-RGMa-AP; not shown: alkaline phosphatase tag of the Psectag2B-AP plasmid
Question: Does B6 bind [8]?
Answer: no binding

B7: N-RGMa (28-54aa), AP-tagged (peptide)
chain: SPCKILKCNSEFWAATSGSHHLGAEET
modifications: cysteine pairing not given here; also: alkaline phosphatase tag, sequence and position not given here
notes: as for B2
Question: Does B7 bind [6]?
Answer: no binding (tested: 1.0 µg/mL)

From patent US20160271230A1 (UNIVERSITY HEALTH NETWORK, published 2016)
